In paper PMC9170038, “Crowdsourced RNA design discovers diverse, reversible, efficient, self-contained molecular switches”:

target: MS2 coat protein, dlFG mutant (Escherichia phage MS2, UniProt P03612, del68-81insG); assay: 4 mM Mg2+; no ligand; RNA-MaP array; 100 mM Tris-HCl pH 7.5, 80 mM KCl, 4 mM MgCl2, 0.1 mg/mL BSA, 1 mM DTT, 0.01 mg/mL yeast tRNA, 0.01% Tween-20; protein 1.5 nM to 3 uM; 37 C (Table S3); details: chain copies: 2; label: tethered by stalled RNA polymerase

Row | Binder | Kd [nM]
1 | AAAACAUGAGGAUCACCCAUGUAAA (ssRNA) [Eterna 1 (MS2 control)] | 12.8
2 | Eterna 1023 (Exclusion - FMN A) (ssRNA) RNA: GUCCAUGUCCUCAUUCGUGCACUGGACACCAAGGAUAUGUUUAUGGACAGAAGGUGGUUGGGUCAGUGAUGUUGAUAUAAUUAGU | > 3000
3 | Eterna 7770355 (Exclusion - Tryptophan A) (ssRNA) RNA: GGUGUUGUUUGUGCUGUUUUCCUCGUUCCUCGAGGACCGGUACGGCCGCCACUCGAGUGAUGUUUGGGUAGCGAUCCUUGUUAGU | > 3000
4 | Eterna 7710481 (Same State - Theophylline B) (ssRNA) RNA: GGAGGUUGGUGCGAUACCAGACCAGCAGUGAUGUUGCGCCAAAGUGAGUGAUGUUCACCGGUCCCUUGGCAGCGCAUUCCUUUAG | > 3000
5 | Eterna 7697814 (Same State - Tryptophan B) (ssRNA) RNA: AGUAGUUGGACGGCCGCCACUGGAACAGCUUUGCCAAAGGCAGAGCACUAGAGUGAUGUUCUAGCUAGGACCGGGUCCAACUACA | > 3000
6 | Eterna 7692142 (Exclusion - FMN A) (ssRNA) RNA: UUAUAUACGAGUGAUGUUCGUUAUUUAUCAGAGGAUAUGCUUAAAUGCAGAAGGCUGUUUUUCUAUUUGAUAUUAAAUUUUAUAA | > 3000
7 | Eterna 7684764 (Exclusion - Tryptophan B) (ssRNA) RNA: AAUAAAAUCACGGCCGCCACUGAUGUUAAUAUUAGCAGUGAUGUUGCUAUGUCGUUUUUAUUUAACAGGACCGGGUGAAUAUUUA | > 3000
8 | Eterna 7687503 (Exclusion - Theophylline A) (ssRNA) RNA: UGUAUGUGUCAGCGAGUGAUGUUCGACGAUACCAGACUCGAUAGAGUCCCUUGGCAGCGUAAUGCAUGCCAAACUGGCACAUACU | > 3000
9 | Eterna 7730540 (Same State - FMN A) (ssRNA) RNA: AGCGAGUGAUGUUCGCUGAUCAUGUGAAGUUAGGAUAUAUACUUGCAUAGAAGGAACUAUUACAUGACAUUAGAGGCAGUAGUUC | > 3000
10 | Eterna 7692481 (Exclusion - Theophylline B) (ssRNA) RNA: UUAGUUGAAAGUGAUACCAGACGAGUGAAGGGAAGAAAUUAAGUUGGAGUGAUGUUCCGCGUCCCUUGGCAGCACUUUGUAAUUU | > 3000
11 | Eterna 7755228 (Same State - Theophylline A) (ssRNA) RNA: AAAAUAAAUCAGUGAUGUUGGUAUCCGGAUACCAGCGAUAAUCAUCGCCCUUGGCAGCCGCGGACGUACAAAAUAAGUACGUCCU | > 3000
12 | Eterna 7696419 (Exclusion - Arginine B) (ssRNA) RNA: AAUGUACAGGGAAGGAGCGUAGUCCAGUGAUGUUGGAGUUAAAUACCAGUGAUGUUGGUUAUACAGGUAGGUCGCCCUAAAGUGC | > 3000
13 | Eterna 6398795 (Exclusion NG 1) (ssRNA) RNA: CCUGCACCUCAAGGAUAUCCAGUCGAAACGACUGGAGAAGGUGAGGAUCACCCAUCUAGCCUGACGAAAGUCAGGCAUGCAGGA | 368
14 | Eterna 6121278 (Same State NG 1) (ssRNA) RNA: UCACUCAAGUUAGGAUAUGGAUCGGAAAACGAUCCAGAAGGAACAUGAAAACAUGAGCAUCAGCCAUGUUCCAGAAACGAGUGA | 77.6
15 | Eterna 6117498 (Same State NG 2) (ssRNA) RNA: AAAACAUACCGAGGAUAUUCAUAUAAUAAAUAAACAUGAGGAUCACCCAUUUGGCAAAAGCCUAGGGAGAAGGCGGAAUGCUAA | 974
16 | Eterna 7673438 (Same State - Arginine B) (ssRNA) RNA: UGUAUGGACUGAAGGAGCGGGUUGAUAUCAUGAGGAUCACCCAUGGAAAAGGCGAAAGCCGCCCAGGUAGGUCGCAGUCCAUACU | 20
17 | Eterna 7673392 (Same State - Arginine B) (ssRNA) RNA: UGUAUGGACUGAAGGAGCGGGUUGAUAACCUGAGGAUCAUCCAGGUAAAAGGCGAAAGCCACCCAGGUAGGUCGCAGUCCAUACU | 279
18 | Eterna 7710185 (Exclusion - Tryptophan A) (ssRNA) RNA: AGCUCGCAUCCUCUAGCGUCAAAGACGCCUCGAGGACCGGUACGGCCGCCACUCGAGAUGAGGAUCACCCAUCUCAAAGCGAGCA | 190
19 | Eterna 7734801 (Same State - FMN B) (ssRNA) RNA: UGUACCGAGUCAGGAUAUGUCGUCGAAAGACGAAUCCUAGUGAUGUUAGGGAUCUGCGAAAGCAGUGCAGAAGGGACUUGGUACU | > 3000
20 | Eterna 6121478 (Same State NG 1) (ssRNA) RNA: GCACUCAAGUUAGGAUAUGGAUCGGAAACCGAUCCAGAAGGAACACAAUAACAUGAGCAUCAGCCGUGUUCCAGAAACGAGUGC | 463
21 | Eterna 7697025 (Exclusion - Arginine B) (ssRNA) RNA: UGAUAGGACAGAAGGAGCGGAAGUGAUGUUUCCAAUGGAUAAAAGGUGUCAAAGACACCCUUCCAGGUAGGUCGCUGUCCUAUCU | > 3000

Row | Binder | Kd [nM]
22 | Eterna 6421601 (Exclusion NG 3) (ssRNA) RNA: GGUACUCAAAGAGUACCAAAACGAACAUGAGGAUCACCCAUGUAGGAUAUGCUACUCAAAGAGUAGCAGAAGGACAUGUGCCUA | 18.5
23 | Eterna 6428636 (Exclusion NG 3) (ssRNA) RNA: AGGUAUCCUGAGAAAUUUCUCCACAUGAGGAUCACCCAUGUAGAGGAUAUCGACGCUGUGCGGUUCGAGAAGGCUACACUAAAA | 5.95
24 | Eterna 6374082 (Exclusion NG 1) (ssRNA) RNA: CGGUGACGUGUAGGAUAUGGCGCUGGGUUUUGGCCAGAAGGACAUGAGGAUCACCCAUGUGGUAGAGGGCUGGCGGCCGCCCGU | 15.7
25 | Eterna 9265 (Exclusion 1) (ssRNA) RNA: CCGUCACAUGAGGAUCACCCAUGUCAGGAUAUCUAUCAUAGCAUCGAAAGAUGCGGGUAGAGAAGGGACUAUCC | 19.2
26 | Eterna 6150223 (Exclusion NG 3) (ssRNA) RNA: AUUAUGACCGAGUUAUGCUUCAAAACAUGAGGAUCACCCAUGUAGGAUAUCAGCACGAUAAGUGCUGAGAAGGACAUCUCGGUC | 14.7
27 | Eterna 7696031 (Exclusion - Tryptophan B) (ssRNA) RNA: UGAUACCAGACGGCCGCCACUACACCAGUCAAAGACUGGAUGUGAAAUUCGACCAGUGAUGUUGGUAGGACCGGGUCUGGUAUCU | > 3000
28 | Eterna 6454516 (Inverted Same State NG 3) (ssRNA) RNA: AAACACGGACAUGAGGAUCACCCAUGUGGCGAAAGCCUUGGAAGAAGGCCGAUUGCAAAGCAAUCGGAGGAUAUUCAUACCGUG | 13.8
29 | Eterna 7632613 (Same State - Theophylline B) (ssRNA) RNA: GGGUGUGAUCCGGAUACCAGCGAACAUGAGGAUCACCCAUGUGACCUGAGAUCGGCUCUACGCCCUUGGCAGCCGCGGUCGCAGG | 12.2
30 | Eterna 6429242 (Inverted Exclusion NG 1) (ssRNA) RNA: UCCGCAUCUGAGAAGGGAUCUCCGCGGAAGGGAUCAGGAUAUCGGACAUGAGGAUCACCCAUGUGCCGUUAAAGGACACCUGGU | 6.05
31 | Eterna 6443507 (Inverted Exclusion NG 1) (ssRNA) RNA: CGAACCAUGUAGAAGGCUGUCUUAAAAUAGGACAGAGGAUAUACAUGAGGAUCACCCAUGUACUCCUUUAAAAGGUUCGAAAUA | 5.01
32 | Eterna 6407693 (Inverted Exclusion NG 2) (ssRNA) RNA: UCAGGCUUCGAGAAGGACAUGAAUCGUAGCAUUGCUACGAUGAAUUAUACAUGAGGAUCACCCAUGUAGGAUAUCGGAGUCUGC | 5.71
33 | Eterna 6063240 (Exclusion 4) (ssRNA) RNA: GUUUCGUCAGGAUAUGUGGCUUCGAUCGUGCGAAGAAGGCUACAGAAGGCACAUGAGGAUCACCCAUGUUCGUC | 34.2
34 | Eterna 12594 (Exclusion 3) (ssRNA) RNA: AACGAUCUAGGAUAUACAUGAGGAUCACCCAUGUAAGAGCCCAAACCAGGCUCCCUCUGUAGAAGGAGGUCAAA | 44.9
35 | Eterna 6447203 (Exclusion NG 2) (ssRNA) RNA: AUCAGCUCGUCAGGAUAUACGUAACUGCGUCAGCAGUGUGGUAAGAUCACAUGAGGAUCACCCAUGUAGAAGGGACGAGCUGAU | 51.7
36 | Eterna 5973727 (Sensor, turn-off variant 1) (ssRNA) RNA: CCGUGCACGCUGCGCUCCUACAUGAGGAUCACCCAUGUGGUCCGGUGGCGUGGGUCGCCGGACUUGGCUCGUCUUGU | 92.3
37 | Eterna 7710586 (Same State - Theophylline B) (ssRNA) RNA: UCUGGUAUAUCUGAUACCAGAGUAUAGUAUCAAUUGCAUAUCCGCAGUGAUGUUGCGGAACUCCCUUGGCAGCAGAUCUAUCUCU | > 3000
38 | Eterna 11606 (Exclusion 1) (ssRNA) RNA: UUUUAACAUGAGGAUCACCCAUGUGAGGAUAUCGAUAUUUUUAUUAAUAUUAAUAAAACGAGAAGGCACAUUUU | 68
39 | Eterna 5503477 (Same State 1) (ssRNA) RNA: AAGAAACAUGAGGAUCACCCAUGUAAGAUAAACACAGGAUAUGCGAAUAAAAUAAAUAAAGCAGAAGGGUGAAGAA | 51.2
40 | Eterna 15969 (Sensor v3, turn-off variant 2) (ssRNA) RNA: AAGUACCGUCACGAUAGUGAUGGUACAACAAGCAAAUGUACAUGAGGAUCACCCAUGUCCUCUUUUGCUCGUCUUGU | 166
41 | Eterna 6458016 (Inverted Same State NG 1) (ssRNA) RNA: CGCUACACCCAGAAGGACAUGAGGAUCACCCAUGUAGGAUAUGGGAGACACAGUCCCAUGUAGAGAAAUUACGCUAGUGUAGCG | 166
42 | Eterna 8125 (Exclusion 4) (ssRNA) RNA: GUGAAGUGAGGAUAUACGAGAGAGGCUGAACCGGACGAGAAGUAGAAGGCACAUGAGGAUCACCCAUGUACGGG | 208
